Consider two substances from article PMC6957486.

In experiment [1] the target is photosystem I (PSI) core from H. hongdechloris grown under far-red light, one monomer of the trimer (Halomicronema hongdechloris). The experiment is described as follows: cryo-EM structure; single particle analysis of PSI trimers purified whole from thylakoid membranes; 50 mM MES (pH 6.0), 5 mM CaCl2, 0.2-2.0% sucrose, 0.01% β-DDM; grids washed without sucrose and β-DDM; 2.35 Å (white PSI) and 2.41 Å (far-red PSI).

In experiment [2] the target is photosystem I (PSI) core from H. hongdechloris grown under white light, one monomer of the trimer (Halomicronema hongdechloris). The description is as above.

Turning to “photosystem I (PSI) core from H. hongdechloris grown under far-red light, one monomer of the trimer (from UniProt A0A1Z3HPE3 1-81; A0A1Z3HHI7 1-142; A0A1Z3HI16 1-68; A0A1Z3HR36 1-96) (complex)”, in experiment [1], the stoichiometry N was determined as 3. For the substance “photosystem I (PSI) core from H. hongdechloris grown under white light, one monomer of the trimer (from UniProt A0A1Z3HPE3 1-81; A0A1Z3HHI7 1-142; A0A1Z3HI16 1-68) (complex)”, in experiment [2], the stoichiometry N was 3.
